Test system: O=C(Cc1cccs1)N[C@@H]1C(=O)N2C(C(=O)O)=C(/C=C/c3ccc([N+](=O)[O-])cc3[N+](=O)[O-])CS[C@H]12
Test: purified protein
Settings: Zn2+ enzyme; steady-state buffer and pH not given here; King-Altman value from pre-steady-state data listed separately

Substance | Km [µM] | kcat [s⁻¹]
MIM-1 (Novosphingobium pentaromativorans US6-1) | 41 ± 10 | 17 ± 4
SAM-1 (Simiduia agarivorans SA1 = DSM 21679) | 20 ± 3 | 10 ± 5

From paper PMC7392888
